According to the nanobody polyreactivity screen of Harvey et al. (2022):

Assay: yeast display, Sf9 membrane polyspecificity reagent, FACS + sequencing; frameworks hold sequencing errors
How it was run: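 Sorting gates, low and high (top ~1%), were placed on anti-HA fluorescence to track expression and on streptavidin fluorescence to track reagent binding. A clone's polyreactivity label is taken from the gate it came out of. The reagent was 10% biotinylated, detergent-solubilized Sf9 membrane, applied for 1 hour at 4 °C to galactose-induced yeast display cells.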

Sequence	polyreactivity (PSR sort gate)
QVQLVESGGGIVQAGGSLRLTCAASGRTYTPYAMGWYRQAPGKERELVAAIDTSGGSTYADSVKGRFTISRDNAKNTVYLQMNSLKPEDTAVYYCATRGFYSWDYWYLWEYDYWGQGTQVTVSS	low polyreactivity
QVQLVESGGGIVQAGGSLSLSCAASGFIIPSYTMGWYRQAPGKERDLVAGITQRGGSTYYADSVKGRFTISRDNAKNTVYLQMNSLNPEDTAVYYCARGISRGRSFGIGYDYWGQGTQVTLSS	low polyreactivity
QVQLVESGGGIVQAGGSLSLSCAASGSTFYSYDMVWYRPAPGKERELVAAISWEGGRPYYADSVKGRFTISRDNAKNNVYLQMNSLKPEDTAVYYCADAYPTYRHYYWGQGTQVSVSS	low polyreactivity
QVQLVESGGGIVQAGGSLSLSCRACGRSFAFYSMGWYRQEPGKERELVAAITRTGSTSYADSVNGRFTISRDNAKNTVYLQMNSLKPEDTAVYYCATVGYPYTLWHQMVYWGQGTQVTVSS	low polyreactivity
QVQLVESGGGIVQAGRSLRLSCAASGNTFYLYAMGWYRQAPGKERELVATITSGGRTTYADSVKGRFTISRDNAKNTVYLQMNSLKPEDTAVYYCAARRVQYYGWGGMEYWGQGTQVTVSS	high polyreactivity
QVQLVESGGGIVQAGRSLRLSCAASGRTFYYYVMGWYRQAPGKERELVAAISRGGRTYYADSVKGRFTISRDNAKNTVYLQMNSLKPEDTAVYYCNAVPRKSRHRYDYWGQGSQVTVSS	high polyreactivity
QVQLVESGGGIVQAGVSLRLSCAASGGTLCTYAMGWYRQAPGKERELVASIDSGDSTYYADSVKGRFTISRDNAKNTVYLQMNSLKPEDTAVYYCAAAYFRRYTTTWYGYEYWGQGTQVTVSS	low polyreactivity
QVQLVESGGGIVQARGSLRLSSAASGNIFRINGMGWSRQERGKERELVASITRSGSTYYADSVKGRFTISRDNAKNTVYLQMNILKPEDTAVYYCAADSSSYGVRFDYWGQGTQVTVSS	low polyreactivity
QVQLVESGGGIVQVGRSLPISSAAYGRTFVYYAMGWYRQAPGKERELVARISRSGGRTFYADSVKGRFTISRDNAKNTVYLVLYSQKPEDTAVYYCNSSDVHVTTYGYWGQGTQVSVSS	low polyreactivity
QVQLVESGGGKVQAGGSLRLSCAASGLTFSRYAMGWYRQAPGKERELVAAISGRGASTSYADSVKGRFTISRDNAKNTVYLQMNSLKPEDTAVYYCAAQKYYHSYLNRHYYWGQGTQVTVSS	high polyreactivity
QVQLVESGGGKVQAGGSLRLSCAASGRIFPEYAMGWYRQAPGKERELVAAISSGDNTTYADSVKGRFTISRDNAKNTVYLQMNSLKPEDTAVYYCNAGSGTTGQGGPIIEYGYWGQGTQVTVSS	low polyreactivity
QVQLVESGGGKVQAGGSLRLSCAASGRILHEYAMGWYRQAPGKERELVAAITFSGTSTYYADSVKGRFTISRDNAKNTVYLQMYSLKPEDTAVYYCAADTYGGSRDYWGQGTQVTVSS	low polyreactivity
QVQLVESGGGKVQAGGSLRLSCAASGYTFKYYTMGWYRQAPGKERELLAAITRSGGSTYYADSVKGRFTISRDTAKNTVYLQMNSLKPEDTAFYYCAARASYKQPVSFDYWGQGTQVTVSS	high polyreactivity
QVQLVESGGGLDHAGGSLRLSCAASGRTFLGYAMGWYRQAPGKERELVAAISSSGGSTYYADSVKGLFTISRDNAKNTVYLQTNSLKPEDTAVYYCAKRKPATCASGHRFGYWGQGTQVTVSS	high polyreactivity
QVQLVESGGGLDLAGGSLRLSCASSGLTFFYYAMAWYRQAPGKEMEFVASISRSGGSTYYADSVKGRFTISRDNAKNTVSLQKNSLKPEDTAVYYCAAVERRTPGYGYDYWGQGTQVTVSS	high polyreactivity
QVQLVESGGGLDQAGCSLRLSCAASGRIFYVYDMGWYRQAPGKERELVATITSSGDGTYYADSVKGRFTSSRDNAKNTVYLQMNSLKPEDTAVYYCARRYFVRFVNPPYYYWGHGTQVTVSS	low polyreactivity

Sequence	polyreactivity (PSR sort gate)
QVQLVESGGGLDQAGGRLRLSCAASGRTFVYYAMGWYRQAPGKERELVATITRGGRTNYADSVKGRFTISRDNAKNTVYLQMNSLKPEDTAVYYCNARYSWWRSRVGSSHRPDGYWGQGTQVTVSS	high polyreactivity
QVQLVESGGGLDQAGGRLRLSCAASGRTYSVKSMGWYRQAPGKERELVAAITSGGSTYYADSVKGRFTISRDNAKNTVYLQMNSLKPEDTAVYYCNAVGRLRRSRLRMDYWGQGTQVTVSS	high polyreactivity
QVQLVESGGGLDQAGGRLRLSCAAYGSTFELYAMGWYRQAPGKERELVASITGDSTNYADSVKGRFTISRDNAKNTVYLQMNSLKPEDTAVYYCAAEYVPYYEYESWGQGTQVTVSS	low polyreactivity
QVQLVESGGGLDQAGGSIRLSCAASGGTFKANAMGWYRQAPGKEREVVAAIRQTGGSTYYADSVKGRFTISRDNEKNTVYLQMNSLKPEDTAVYYCAAQSHRYWIYDYWGQCTQVTVSS	high polyreactivity
QVQLVESGGGLDQAGGSLPLSCAASGFTFGHYAMGWYRQAPGKERELVAAISSGDRTYYADSVKGRFTISRDNAKNTVYLQMNSLKPEDTAVYYCAADGIYTYEYWGQGTQVTVSS	low polyreactivity
QVQLVESGGGLDQAGGSLRLICDAYGSTFNWNAMGWYRQAPGKERELVAAISSGGSTNYADSVKGRFTISRDNAKNTVYLQMNSLKPEDTAVYYCARQHSRWYSGYKYNYWGQGTQVTVSS	high polyreactivity
QVQLVESGGGLDQAGGSLRLIFAASGRTFYRYAMGLYRQAPGKERELVAAISVRGGSTYYADSVKGRFTISRDNAKNTVYLQMNSLKPEDTAVYYCDAEYVAPWYIGLEVTRLIYWGQGTQVTVSS	high polyreactivity
QVQLVESGGGLDQAGGSLRLISAASGLTLRRYAMGWYRQAPGKERELVASINTGTSTKYADSVKGRFTISRDNAKNTDYLQLNSLKPEDTAFYYCAARPAAQGYGYWGQGTQVTVSS	high polyreactivity
QVQLVESGGGLDQAGGSLRLSCAASGFIFGVSVMGWYRPAPGKERELVAAMSGRGGSTFYADSVKGRFTISRDNAKNTVYLQMNSLKPEDTAVYYCAAKSTGPSMDYWGQGTQVTVSS	high polyreactivity
QVQLVESGGGLDQAGGSLRLSCAASGFIFQRYTLGWYRQAPGKERELVAAITSGGRTYYADSVKGRFTISRDNAKNTVYLQMNSLKPEDTAVYYCNARGRASRHSGYDYWGQGTQVTVSS	high polyreactivity
QVQLVESGGGLDQAGGSLRLSCAASGFIFRYYAMGWYRQAPGKERELVAAISRNGGSTYYADSVKGRFTISRDIAKNTVYLQMNSLKPEDTAVYYCAALTGRERYDYWGQGTQVTVSS	high polyreactivity
QVQLVESGGGLDQAGGSLRLSCAASGFIFVRNAMGWYRQPPGKERELVAAITRSGGSTSYADSVKGRFTISRDNAKNTVYLQMNSLKPEDTAVYYCASERYPWQLYWSYYGYYYWGQGTQVTVSS	high polyreactivity
QVQLVESGGGLDQAGGSLRLSCAASGFTFAVYAMGWYRQAPAKERELVAAISRSGTRTYYADSVKGRFTISRDNAKNTVYLQMNSLKREDNAVYYCAADNYRHGYEYWGLGTQVTVSS	high polyreactivity
QVQLVESGGGLDQAGGSLRLSCAASGFTFPGNAMGWYRQSPGKEREFVAGISRSGDSTYYADSVKGRFTISRDNAKNTVYLQMNSLKPEDTAVYYCAARNPYRYFYYYEYWGQGTQVTVSS	low polyreactivity
QVQLVESGGGLDQAGGSLRLSCAASGFTFRHNTMGGYRQAPGKEREMVAAISIGGRTYYADSVKGRFTISRDNAKNTVYLQMNSLKPEDTAVYYCAKLSRGQSPGYDYWGQGTQVTVSS	high polyreactivity
QVQLVESGGGLDQAGGSLRLSCAASGFTFSYNAMGWYRQAPGKERELVASISWRGGGTYYADSVKGRFTISRDNAKNTVYLQMNSLKPEDTAVYYCNAGLTDYIGDPSEVDYWGQGTQVTVSS	low polyreactivity
